Bounds are passed on as bounds.

From article PMC3983052 come the findings set out here.

The target in this assay is AaSR-C-Full (full-length A. aegypti scavenger receptor-C with its trans-membrane region, 23-494 aa) (Aedes aegypti). In words: flow cytometry on cells. On the technique in general: In flow cytometry, cells or beads pass a laser one at a time.

For the substance “purified inactivated DENV-2 virions (complex)”, the percent of AaSR-C-expressing cells bound by DENV-2 virions was greater than 90%.
